US20160024208A1 (Regeneron, published 2016)
Ends that are not written are not given here. * marks the point of attachment. Biotin = O=C1N[C@H]2[C@H](CS[C@H]2CCCCC(=O)*)N1

How the values were obtained:
[1] = target: T1, Native Nav1.7 (3-1) peptide, rat (rat); test: ELISA on coated peptide, antibody 1 ug/ml, OD450 grade
T1 construct: Synthetic peptide; also called Rat Nav1.7 3-1 native
T1 peptide: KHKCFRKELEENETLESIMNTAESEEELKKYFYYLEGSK
In short: (§1)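 Peptides coated at 4 μg/mL in PBS, or biotinylated peptides captured at 0.4 μg/mL on avidin (2 μg/mL). Antibodies at 0.1 and 1.0 μg/mL, 1 h at room temperature, detected with HRP anti-mouse or anti-human IgG and TMB at OD450. Scores at 1 μg/ml: <0.2 −; 0.2–1 +; 1–2 ++; 2–4 +++.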

[2] = target: T2, N-Term Biotin-Nav1.7 (3-1) peptide, human (human, not fully specified; N-terminal biotin attached via a G4S linker); test: as above
T2 construct: ELISA peptide
T2 peptide: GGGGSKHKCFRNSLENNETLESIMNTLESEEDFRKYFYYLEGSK
In short: as §1

[3] = target: T3, N-Term Biotin Nav1.7 (3-1) peptide, mulatta (mulatta (monkey), not fully specified; N-terminal biotin attached via a G4S linker); test: as above
T3 construct: Synthetic peptide; also called Mulatta Nav1.7 3-1 N-term biotin; monkey
T3 peptide: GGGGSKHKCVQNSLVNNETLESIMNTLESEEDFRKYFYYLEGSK
In short: as §1

[4] = target: T4, full-length human Nav1.7 fused at its N-terminus to GFP, expressed in HEK293 cells (human, UniProt Q15858 1-1988); test: cell-based or functional assay
[5] = target: T5, Native Nav1.7 (3-1) peptide, human (human); test: Biacore (second token of ELISA/Biacore summary)
T5 construct: Synthetic peptide (Celtek), unbiotinylated; also called Human Nav1.7 3-1 native; Nav1.7 3-1 native peptide
T5 peptide: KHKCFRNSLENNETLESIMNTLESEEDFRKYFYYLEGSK

[6] = target: T5, Native Nav1.7 (3-1) peptide, human; test: SPR, captured antibody, peptide analyte
In short: (§2)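 Biacore SPR: antibody captured via Fc on anti-Fc surface, Nav1.7 loop peptides injected as analyte at several concentrations. Double-referenced sensorgrams globally fitted to a 1:1 model; KD = kd/ka, t1/2 = ln2/kd.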

[7] = target: T3, N-Term Biotin Nav1.7 (3-1) peptide, …; test: SPR, captured antibody, peptide analyte
In short: as §2

[8] = target: T3, N-Term Biotin Nav1.7 (3-1) peptide, …; test: ELISA on coated peptide
Description: (§3) Anti-Naᵥ 1.7 antibodies were tested for their ability to bind to the Naᵥ 1.7 peptides. The various peptides were coated overnight onto 96-well Nunc Immunosorp plates at a concentration of 4 μg/mL in PBS, followed by blocking for 1 hour in a suitable blocking agent. For biotinylated peptides, avidin was first coated on Nunc Immunosorp plates at 2 μg/mL in PBS overnight, followed by blocking as described, and the plate was then coated with biotinylated peptides at a concentration of 0.4 μg/mL and incubated for 1 hour at room temperature. Purified anti-Naᵥ 1.7 antibodies were diluted to a final concentration of 0.1 μg/mL and 1.0 μg/mL and added to the wells of the coated microtiter plates followed by incubation for 1 hour at room temperature. Bound antibodies were detected with horseradish peroxidase (HRP) conjugated anti-mouse or anti-human IgG (Jackson Immuno Research Lab, West Grove, Pa.) depending on the antibody species and developed by colorimetric response using tetramethylbenzidine (TMB) substrate (BD Biosciences). Absorbance was read at OD₄₅₀ on a plate reader for 0.1 second.
(§4) Values in Table 11 represent absolute binding ranges (at OD450) to plate-coated peptides for antibodies added at 1 μg/ml as follows: OD450<0.2: −; 0.2<OD450<1: +; 1<OD450<2: ++; 2<OD450<4: +++; NT: Not Tested.

[9] = target: T6, N-Term Biotin-Nav1.7 (3-3) peptide, human (same sequence of EC3-3 for mulatta) (human (same sequence of EC3-3 for …, not fully specified; N-terminal biotin attached via a G4S linker); test: ELISA on coated peptide, antibody 1 ug/ml, OD450 grade; Monkey column
T6 construct: ELISA peptide
T6 peptide: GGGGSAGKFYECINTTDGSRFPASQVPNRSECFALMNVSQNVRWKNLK
Description: as §3, §4

[10] = target: T6, N-Term Biotin-Nav1.7 (3-3) peptide, …; test: ELISA on coated peptide, antibody 1 ug/ml, OD450 grade; Human
Description: as §3, §4

[11] = target: T7, Native Nav1.7 (3-3) peptide, rat (rat); test: ELISA on coated peptide
T7 construct: ELISA peptide
T7 peptide: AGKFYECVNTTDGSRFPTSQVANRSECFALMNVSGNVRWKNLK
Description: as §3, §4

[12] = target: T7, Native Nav1.7 (3-3) peptide, rat; test: ELISA on coated peptide, antibody 1 ug/ml, OD450 grade
In short: as §1

[13] = target: T8, N-term Biotin Nav1.7 (3-3) peptide, mouse (mouse, N-terminal biotin attached via a G4S linker); test: ELISA on coated peptide
T8 construct: ELISA peptide
T8 peptide: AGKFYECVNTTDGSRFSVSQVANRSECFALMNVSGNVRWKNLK
Description: as §3, §4

[14] = target: T9, C-term Biotin Nav1.7 (3-1) peptide, human (human, not fully specified; C-terminal biotin attached via a G4S linker); test: SPR, captured biotin-peptide, antibody analyte
T9 construct: Synthetic peptide; also called Human Nav1.7 3-1 C-term biotin
T9 peptide: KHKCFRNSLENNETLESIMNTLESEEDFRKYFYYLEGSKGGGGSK

[15] = target: T4, full-length human Nav1.7 fused at its …; test: flow cytometry; % stained hNav1.7-GFP-HEK293 minus parental HEK293
In short: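 Antibody (1-13 nM) incubated 20 min on ice with stably transfected hNav1.7-GFP-HEK293 or parental HEK293 cells in PBS/5% FBS, then 1.7 nM Cy5- or APC-labelled anti-Fc secondary for 20 min on ice. Flow cytometry of live-gated cells; specific binding = % stained transfected minus % stained parental.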

[16] = target: T5, Native Nav1.7 (3-1) peptide, human; test: SPR, captured antibody, peptide analyte; IC = binding data could not be fit
Description: The binding affinities of anti-Naᵥ 1.7 antibodies to Naᵥ 1.7 loop peptides were determined by Biacore. For monovalent kinetic experiments, antibodies were captured through the Fc region via a goat anti-Fc-coupled biosensor surface, and the peptides (as analyte) were injected over this captured antibody surface. For bivalent (avidity-driven) kinetic experiments, biotinylated peptides corresponding to the Naᵥ 1.7 3-1, 3-3, or paddle loop sequences were captured on a NeutrAvidin sensor surface, and anti-Naᵥ 1.7 antibodies (as analyte) were injected over this surface. Following the capture step, each analyte was individually injected at several concentrations over its respective capture surface, and changes in bound surface units (RU) were monitored. The dissociation rate is independent of the concentration of analyte used in the experiment, and the dissociation rate constant (kd) was determined from the change in antibody-bound analyte RU over time. The Biacore kinetic data were obtained using a double referencing procedure. […] The KD was calculated as the dissociation rate constant divided by the association rate constant (KD=kd/kₐ). The dissociative half-life (t_{1/2}) was calculated from the dissociation rate constant (t_{1/2}=In2/kd).

[17] = target: T10, N-Term Biotin Nav1.7 (Paddle) peptide, mulatta (mulatta (monkey), not fully specified); test: ELISA on coated peptide, antibody 1 ug/ml, OD450 grade
T10 construct: ELISA peptide
T10 peptide: Biotin-GGGGSTEFVDLGNVSALRT
In short: as §1

[18] = target: T11, N-term Biotin Nav1.7 (Paddle) peptide, human (human, not fully specified); test: as above
T11 construct: ELISA peptide
T11 peptide: Biotin-GGGGSTEFVNLGNVSALRT
In short: as §1

[19] = target: T12, Native Nav1.7 (Paddle) peptide, human (human); test: SPR, captured antibody, peptide analyte
T12 construct: Synthetic peptide, unbiotinylated; also called Human Nav1.7 paddle native
T12 peptide: TEFVNLGNVSALRT
In short: as §2

B1: H4H439B (antibody, V domains shown)
VH: QVQLQQWGAGLLKPSETLSLTCAVYGGSFSGHYWSWIRQPPGKGLEWIGEINHRGSTNYNPSLKSRATISVDTSKNQFSLKLSSVTAADTAVYYCAREGSLAARLWFFDLWGRDTLVTVSS
VL: DIQMTQSPSSLSASVGDRGTITCRASQDIRTYLNWYQQKPGKAPKLLIYAASSLQSGVPSRFSGSGSGTDFTLTISSLQPEDFATYYCQQSYGTPYTFGQGTKVEIKR
B1 showed an OD450 [1] of 1 to 2 od, an OD450 [2] of 2 to 4 od and an OD450 [3] of 2 to 4 od. The “Current blocking (Average % inhibition), IonWorks Quattro, 223 nM antibody” value (from here on “Current blocking (Average % inhibition)”) [4] was 33.6% and the binding result [5] was “binds”.

B2: H4H448B (antibody, V domains shown)
VH: EVQLVQSGGGLVQPGRSLRLSCAASGFTFDDYAMHWVRQAPGKGLEWVSGISWNSGSIGYADSVKGRFTISRDNAKNSLYLQMNSLRAEDTALYYCAKDIEYYDILTGYYSYYIMDVWGQGTTVTVSS
VL: DIRMTQSPSSLSASVGDRGTITCRASQNINSYLNWYQLKPGKAPKLLIFAASSLQSGVPSRFSGSGSGTDFTLTISSLQPEDFATYYCQQSYSSPFTFGQGTKVEIKR
With B2 the OD450 [2] was 2 to 4 od, the Kd [6] was 21.9 nM and the t1/2 [6] was 1.8 min. The binding result [7] was “no binding” and the OD450 [8] was < 0.2 od.

B3: H4H471B (antibody, V domains shown)
VH: EVQLVESGGGLVKPGGSLRLSCAASGVTFSDYYMTWIRQAPGKGLEWVSYISTDGRTIYYADSVKGRFTISRDNAKNSLYLQMNNLRAEDTAVYYCARGVDSDDYEDFYSYYDMDVWGQGTTVTVSS
VL: DIQMTQSPSSLSASVGDRVTITCRASQGISNYLAWFQQKPGKAPKSLIYAASSLQGGVPSRFSGSGSGTDFTLTISSLQPEDFATYYCQQYNSYPLTFGGGTKVEIKR
For B3, the “Current blocking (Average % inhibition)” value [4] was 57%, the OD450 [9] was 2 to 4 od and the OD450 [10] was 2 to 4 od. The OD450 [11] was < 0.2 od.

B4: H4H468B (antibody, V domains shown)
VH: EVQLVQSGGGVVQPGRSLRLSCTASGFTFSVYGIHWVRQAPGKGLEWVAVIWYDGSNKYYTDSVKGRFTISRDNSKNTLYLQMNSLRAEDTALYYCAREGDLSSSSGSGGYHYVVDVWGQGTMVTVSS
VL: DIQMTQSPSSLSASVGDRVTITCRASQDIRNDLGWYQQKPGNAPKLLIYSTSSLQSGVPSRFSGSGSGTDFTLTISSLQPEDFATYYCLQDYNYPLTFGGGTKVEIKR
Work on B4 yielded an OD450 [12] of 2 to 4 od, an OD450 [9] of 1 to 2 od and an OD450 [10] of 1 to 2 od. For the same binder, the OD450 [13] was < 0.2 od.

B5: H1H1003B (antibody, V domains shown)
VH: QVQLVESGGGLVQPGGSLRLSCAASGFTLSSYAMSWVRQAPGKGLEWVSTISGSGIIYYTDSVKGRFTISRDSSKNTLYLQMNSLRVEDTAVYYCAKDRGAAAGAFDYWGQGTLVTVSS
VL: AIQLTQSPDSLAVSLGERATIKCKSSQSVLYSSNNKNYLAWYQQKPGQPPNLLIYWASTRESGVPDRFSGSGSGTDFTLTISSLQAEDVAVYYCQQYFSFGQGTKVDIKR
In the case of B5, the Kd [14] is reported as 2.64 nM, the t1/2 [14] is reported as 27.8 min and the OD450 [1] is reported as 2 to 4 od. The OD450 [2] was 2 to 4 od, the OD450 [3] was 2 to 4 od and the “Current blocking (Average % inhibition)” value [4] was 32.5%. The “% Binding Nav1.7” value [15] was 1.3% and the binding result [16] was “binds”.

B6: H1M683N (antibody, V domains shown)
VH: QVQLVESGGGVVQPGRSLSLSCAASGFTFSNYGMHWVRQAPGKGLEWVAAISYDGNTKYYVDSVKGRFTISRDNSKNTLYLQMNSLRGEDMAVYYCVGARPGYDHYGMDVWGQGTTVTVSS
VL: DIQLTQSPSFLSTSVGDRVTITCWASQGISSYLAWYQQKPGKAPNLLIYTASTLQSGVPSRFSGSGSGTEFTLTISSLQPEDFATYYCQQLNSYPYTFGQGTKLEIK
notes: Loop specificity 2-1 (paddle)
With B6 the binding result [14] was “no binding”, the OD450 [17] was 0.2 to 1 od and the OD450 [18] was 1 to 2 od. It also gave a Kd [19] of 9.4 nM and a t1/2 [19] of 18 min.
